Experimental data as given in patent US20090208447A1 (MEDIGENE, published 2009).

B1: SEQ ID NO 6 (receptor)
chain: MGHLPKPTLWAEPGSVITMGQPVTLRCQGGQETQEYRLYREKKTAPWITRIPQELVKKGQFPIPSITWEHAGRYRCYYGSDTAGRSESSDPLELVVTGAYIKPTLSAQPSPVVNSGGNVTLQCDSQVAFDGFILCKEGEDEHPQCLNSQPHARGSSRAIFSVGPVSPSRRWWYRCYAYDSNSPYEWSLPSDLLELLVL
B2: SEQ ID NO 9 (receptor)
chain: MGHLPKPTLWAEPGSVITMQRPVTLRCQGGQETQEYRLYRERKTAPWITRIPQELVKKGQFPIPSITWEHAGRYRCYYGSDTAGRSESSDPLELVVTGAYIKPTLSAQPSPVVNSGGNVTLQCDSQVAFDGFILCKEGEDEHPQCLSSQPHARGSSRAIFSVGPVSPSRRWWYRCYAYDSNSPYEWSLPSDLLELLVL
B3: SEQ ID NO 24 (receptor)
chain: MGHLPKPTLWAEPGSVITQGSPVTLRCQGGQETQEYRLYREKKTAPWITRIPQELVKKGQFPIPSITWEHAGRYRCYYGSQGGLRSESSDPLELVVTGVYIKPTLSAQPSPVVNSGGNVTLQCDSQVAFDGFILCKEGEDEHPQCLNSQPHARGSSRAIFSVGPVSPSRRWWYRCYAYDSNSPYEWSLPSDLLELLVL
B4: SEQ ID NO 21 (receptor)
chain: MGHLPKPTLWAEPGSVITLFQPVTLRCQGGQETQEYRLYREKKTAPWITRIPQELVKKGQFPIPSITWEHAGRYRCYYGSDTAGRSESSDPLELVVTGAYIKPTLSAQPSPVVNSGGNVTLQCDSQVAFDGFILCKEGEDEHPQCLNSQPHARGSSRAIFSVGPVSPSRRWWYRCYAYDSNSPYEWSLPSDLLELLVL
B5: SEQ ID NO 8 (receptor)
chain: MGHLPKPTLWAEPGSVITLMQPVTLRCQGGQETQEYRLYREKKTAPWITRIPQELVKKGQFPIPSITWEHAGRYRCYYGSDTAGRSESSDPLELVVTGAYIKPTLSAQPSPVVNSGGNVTLQCDSQVAFDGFILCKEGEDEHPQCLNSQPHARGSSRAIFSVGPVSPSRRWWYRCYAYDSNSPYEWSLPSDLLELLVL
B6: SEQ ID NO 23 (receptor)
chain: MGHLPKPTLQAEPGSVITQGSPVTLRCQGGQETQEYRLYREKKTAPWITRIPQELVKKGQFPIPSITWEHAGRYRCVIQRGTAGRSESSDPLELVVTGVYIKPTLSAQPSPVVNSGGNVTLQCDSQVAFDGFILCKEGEDEHPQCLNSQPHARGSSRAIFSVGPVSPSRRWWYRCYAYDSNSPYEWSLPSDLLELLVL
B7: SEQ ID NO 7 (receptor)
chain: MGHLPKPTLWAEPGSVITMDQPVTLRCQGGQETQEYRLYREKKTAPWITRIPQELVKKGQFPIPSITWEHAGRYRCYYGSDTAGRSESSDPLELVVTGVYIKPTLSAQPSPVVNSGGNVTLQCDSQVAFDGFILCKEGEDEHPQCLNSQPHARGSSRAIFSVGPVSPGRRWWYRCYAYDSNSPYEWSLPSDLLELLVL
B8: SEQ ID NO 22 (receptor)
chain: MGHLPKPTLWAEPGSVITLSQPVTLRCQGGQETQEYRLYREKKTAPWITRIPQELVKKGQFPIPSITWEHAGRYRCYYGSDTAGRSESSDPLELVVTGVYIKPTLSAQPSPVVNSGGNVTLQCDSQVAFDGFILCKEGEDEHPQCLNSQPHARGSSRAIFSVGPVSPSRRWWYRCYAYDSNSPYEWSLPSDLLELLVL
B9: SEQ ID NO 25 (receptor)
chain: MGHLPKPTLWAEPGSVITQGSPVTLRCQGGQETQEYRLYREKKTAPWITRIPQELVKKGQFPIPSITWEHAGRYRCYYGTQTAGRSESSDPLELVVTGVYIKPTLSAQPSPVVNSGGNVTLQCDSQVAFDGFILCKEGEDEHPQCLNSQPHARGSSRAIFSVGPVSPSRRWWYRCYAYDSNSPYEWSLPSDLLELLVL

Target: HLA-A*0201 loaded with the Carcinoembryonic antigen (CEA)-derived … peptide (biotinylated on the C-terminal biotinylation tag)
Assay: SPR (Biacore), Example 4

Binder	Kd [nM]	koff [s⁻¹]
B1	≤ 1000	≤ 2
B2	≤ 1000	≤ 2
B3	≤ 1000	≤ 2
B4	≤ 1000	≤ 2
B5	≤ 1000	≤ 2
B6	≤ 1000	≤ 2
B7	≤ 1000	≤ 2
B8	≤ 1000	≤ 2
B9	≤ 1000	≤ 2
